Test results from article PMC10397247.

Assays:
Test in all cases: two-hybrid library CCmax;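 note: natural log of median RNA to DNA barcode read ratio; higher means stronger binding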
4H3120-AA = target: T1, 4H3120-AA; conditions: mean of both orientations
T1 chain: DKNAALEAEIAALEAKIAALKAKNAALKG

4H909-AA = target: T2, 4H909-AA; conditions: mean of both orientations
T2 chain: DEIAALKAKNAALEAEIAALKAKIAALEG

4H2725-AA = target: T3, 4H2725-AA; conditions: mean of both orientations
T3 chain: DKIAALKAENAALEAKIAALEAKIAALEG

4H710-AA = target: T4, 4H710-AA; conditions: mean of both orientations
T4 chain: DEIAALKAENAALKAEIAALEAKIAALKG

4H570-AA = target: T5, 4H570-AA; conditions: mean of both orientations
T5 chain: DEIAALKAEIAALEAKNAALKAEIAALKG

4H2865-AA = target: T6, 4H2865-AA; conditions: mean of both orientations
T6 chain: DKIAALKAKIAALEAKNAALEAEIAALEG

4H2162-AA = target: T7, 4H2162-AA; conditions: mean of both orientations
T7 chain: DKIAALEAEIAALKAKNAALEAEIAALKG

4H745-AA = target: T8, 4H745-AA; conditions: mean of both orientations
T8 chain: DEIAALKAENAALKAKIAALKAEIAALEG

4H797-AA = target: T9, 4H797-AA; conditions: mean of both orientations
T9 chain: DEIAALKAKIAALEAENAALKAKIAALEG

4H3865-AA = target: T10, 4H3865-AA; conditions: mean of both orientations
T10 chain: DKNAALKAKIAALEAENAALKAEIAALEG

4H310-AA = target: T11, 4H310-AA; conditions: mean of both orientations
T11 chain: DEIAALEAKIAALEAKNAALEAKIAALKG

4H3590-AA = target: T12, 4H3590-AA; conditions: mean of both orientations
T12 chain: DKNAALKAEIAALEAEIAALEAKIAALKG

4H2274-AA = target: T13, 4H2274-AA; conditions: mean of both orientations
T13 chain: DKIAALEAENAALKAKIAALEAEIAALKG

4H2330-AA = target: T14, 4H2330-AA; conditions: mean of both orientations
T14 chain: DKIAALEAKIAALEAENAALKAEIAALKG

4H2649-AA = target: T15, 4H2649-AA; conditions: mean of both orientations
T15 chain: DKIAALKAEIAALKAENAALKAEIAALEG

4H2473-AA = target: T16, 4H2473-AA; conditions: mean of both orientations
T16 chain: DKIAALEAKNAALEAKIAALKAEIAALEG

4H3009-AA = target: T17, 4H3009-AA; conditions: mean of both orientations
T17 chain: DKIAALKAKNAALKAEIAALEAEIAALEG

4H458-AA = target: T18, 4H458-AA; conditions: mean of both orientations
T18 chain: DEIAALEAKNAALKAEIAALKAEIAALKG

4H536-AA = target: T19, 4H536-AA; conditions: mean of both orientations
T19 chain: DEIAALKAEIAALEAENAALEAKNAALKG

4H930-AA = target: T20, 4H930-AA; conditions: mean of both orientations
T20 chain: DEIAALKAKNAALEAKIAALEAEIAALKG

4H2438-AA = target: T21, 4H2438-AA; conditions: mean of both orientations
T21 chain: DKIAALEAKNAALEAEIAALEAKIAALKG

4H2698-AA = target: T22, 4H2698-AA; conditions: mean of both orientations
T22 chain: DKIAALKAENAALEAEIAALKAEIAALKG

4H891-AA = target: T23, 4H891-AA; conditions: mean of both orientations
T23 chain: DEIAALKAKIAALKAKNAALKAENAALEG

4H3753-AA = target: T24, 4H3753-AA; conditions: mean of both orientations
T24 chain: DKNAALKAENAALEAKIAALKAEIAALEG

4H2253-AA = target: T25, 4H2253-AA; conditions: mean of both orientations
T25 chain: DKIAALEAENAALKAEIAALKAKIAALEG

4H3130-AA = target: T26, 4H3130-AA; conditions: mean of both orientations
T26 chain: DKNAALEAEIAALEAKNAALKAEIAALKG

4H3165-AA = target: T27, 4H3165-AA; conditions: mean of both orientations
T27 chain: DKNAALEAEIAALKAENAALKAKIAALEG

4H3410-AA = target: T28, 4H3410-AA; conditions: mean of both orientations
T28 chain: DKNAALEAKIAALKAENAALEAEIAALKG

4H2389-AA = target: T29, 4H2389-AA; conditions: mean of both orientations
T29 chain: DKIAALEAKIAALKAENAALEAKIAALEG

4H3395-AA = target: T30, 4H3395-AA; conditions: mean of both orientations
T30 chain: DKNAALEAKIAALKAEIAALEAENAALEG

4H629-AA = target: T31, 4H629-AA; conditions: mean of both orientations
T31 chain: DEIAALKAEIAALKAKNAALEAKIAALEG

4H3016-AA = target: T32, 4H3016-AA; conditions: mean of both orientations
T32 chain: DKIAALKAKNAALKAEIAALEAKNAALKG

4H485-AA = target: T33, 4H485-AA; conditions: mean of both orientations
T33 chain: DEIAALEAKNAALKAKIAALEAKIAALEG

4H1877-AA = target: T34, 4H1877-AA
T34 chain: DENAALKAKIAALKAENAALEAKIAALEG

4H94-AA = target: T35, 4H94-AA; conditions: mean of both orientations
T35 chain: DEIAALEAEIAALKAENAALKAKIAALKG

4H3697-AA = target: T36, 4H3697-AA; conditions: mean of both orientations
T36 chain: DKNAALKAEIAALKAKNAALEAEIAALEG

4H3381-AA = target: T37, 4H3381-AA
T37 chain: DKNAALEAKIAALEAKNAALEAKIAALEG

4H2109-AA = target: T38, 4H2109-AA; conditions: mean of both orientations
T38 chain: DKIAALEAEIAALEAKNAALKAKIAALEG

4H850-AA = target: T39, 4H850-AA; conditions: mean of both orientations
T39 chain: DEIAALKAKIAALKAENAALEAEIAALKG

Question: DENAALKAKIAALKAENAALEAKIAALEG [4H1877-AA] was tested. Which interaction score (4H3120-AA) did it give?
Answer: -1.28

Question: And the interaction score (4H909-AA)?
Answer: -1.84

Question: And the interaction score (4H2725-AA)?
Answer: -0.897

Question: What about the interaction score (4H710-AA) of the same binder?
Answer: -0.752

Question: And the interaction score (4H570-AA)?
Answer: 1.9

Question: What about the interaction score (4H2865-AA) of the same binder?
Answer: -0.796

Question: What about the interaction score (4H2162-AA) of the same binder?
Answer: -1.25

Question: And the interaction score (4H745-AA)?
Answer: -1.08

Question: And the interaction score (4H797-AA)?
Answer: 0.589

Question: And the interaction score (4H3865-AA)?
Answer: 0.523

Question: What about the interaction score (4H310-AA) of the same binder?
Answer: -0.467

Question: And the interaction score (4H3590-AA)?
Answer: -0.565

Question: And the interaction score (4H2274-AA)?
Answer: -1.35

Question: What about the interaction score (4H2330-AA) of the same binder?
Answer: -1.51

Question: What about the interaction score (4H2649-AA) of the same binder?
Answer: -0.409

Question: And the interaction score (4H2473-AA)?
Answer: -1.47

Question: And the interaction score (4H3009-AA)?
Answer: 1.03

Question: And the interaction score (4H458-AA)?
Answer: -0.933

Question: What about the interaction score (4H536-AA) of the same binder?
Answer: -0.101

Question: What about the interaction score (4H930-AA) of the same binder?
Answer: -1.46

Question: What about the interaction score (4H2438-AA) of the same binder?
Answer: -1.24

Question: What about the interaction score (4H2698-AA) of the same binder?
Answer: -1.45

Question: What about the interaction score (4H891-AA) of the same binder?
Answer: -1.36

Question: What about the interaction score (4H3753-AA) of the same binder?
Answer: -1.7

Question: What about the interaction score (4H2253-AA) of the same binder?
Answer: -1.17

Question: And the interaction score (4H3130-AA)?
Answer: 1.82

Question: What about the interaction score (4H3165-AA) of the same binder?
Answer: 0.715

Question: What about the interaction score (4H3410-AA) of the same binder?
Answer: -1.43

Question: And the interaction score (4H2389-AA)?
Answer: -1.07

Question: What about the interaction score (4H3395-AA) of the same binder?
Answer: -1.77

Question: What about the interaction score (4H629-AA) of the same binder?
Answer: -0.167

Question: What about the interaction score (4H3016-AA) of the same binder?
Answer: 0.714

Question: And the interaction score (4H485-AA)?
Answer: 0.957

Question: What about the interaction score (4H1877-AA) of the same binder?
Answer: 0.288

Question: What about the interaction score (4H94-AA) of the same binder?
Answer: 1.3

Question: What about the interaction score (4H3697-AA) of the same binder?
Answer: -0.0749

Question: What about the interaction score (4H3381-AA) of the same binder?
Answer: -0.523

Question: What about the interaction score (4H2109-AA) of the same binder?
Answer: 1.92

Question: What about the interaction score (4H850-AA) of the same binder?
Answer: -1.25
